# Source: PMC5771688
# Legend:
# [1] = molecular target: β-catenin (endogenous) (mouse (endogenous in mouse ECs)) (UniProt Q02248); test: co-IP
# [2] = molecular target: VE-cadherin (VEC) of VEC-positive cells (VEC-null line reconstituted with VEC wild type cDNA) (UniProt P33151); test: co-IP
# Sequence of UniProt P33151 (P33151 48-784): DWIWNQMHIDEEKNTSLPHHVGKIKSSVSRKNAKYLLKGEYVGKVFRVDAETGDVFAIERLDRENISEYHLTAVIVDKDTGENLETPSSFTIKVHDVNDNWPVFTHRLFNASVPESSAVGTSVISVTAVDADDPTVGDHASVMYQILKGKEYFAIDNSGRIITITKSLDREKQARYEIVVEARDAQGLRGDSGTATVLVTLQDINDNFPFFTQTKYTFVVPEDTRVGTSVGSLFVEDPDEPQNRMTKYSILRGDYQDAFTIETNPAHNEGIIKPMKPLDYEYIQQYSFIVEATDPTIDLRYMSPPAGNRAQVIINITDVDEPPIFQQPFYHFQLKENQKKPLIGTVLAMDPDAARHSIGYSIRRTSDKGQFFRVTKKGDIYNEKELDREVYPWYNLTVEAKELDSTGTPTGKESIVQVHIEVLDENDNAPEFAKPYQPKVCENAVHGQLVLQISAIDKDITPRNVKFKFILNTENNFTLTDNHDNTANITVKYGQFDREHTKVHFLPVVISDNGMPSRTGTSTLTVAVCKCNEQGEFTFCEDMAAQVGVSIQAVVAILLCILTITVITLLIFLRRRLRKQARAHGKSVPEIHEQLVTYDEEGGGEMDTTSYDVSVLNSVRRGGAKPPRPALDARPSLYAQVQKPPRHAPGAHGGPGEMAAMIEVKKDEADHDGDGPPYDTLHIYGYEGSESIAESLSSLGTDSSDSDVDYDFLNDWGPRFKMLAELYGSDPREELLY
# Sequence of UniProt Q02248 (Q02248 whole entry): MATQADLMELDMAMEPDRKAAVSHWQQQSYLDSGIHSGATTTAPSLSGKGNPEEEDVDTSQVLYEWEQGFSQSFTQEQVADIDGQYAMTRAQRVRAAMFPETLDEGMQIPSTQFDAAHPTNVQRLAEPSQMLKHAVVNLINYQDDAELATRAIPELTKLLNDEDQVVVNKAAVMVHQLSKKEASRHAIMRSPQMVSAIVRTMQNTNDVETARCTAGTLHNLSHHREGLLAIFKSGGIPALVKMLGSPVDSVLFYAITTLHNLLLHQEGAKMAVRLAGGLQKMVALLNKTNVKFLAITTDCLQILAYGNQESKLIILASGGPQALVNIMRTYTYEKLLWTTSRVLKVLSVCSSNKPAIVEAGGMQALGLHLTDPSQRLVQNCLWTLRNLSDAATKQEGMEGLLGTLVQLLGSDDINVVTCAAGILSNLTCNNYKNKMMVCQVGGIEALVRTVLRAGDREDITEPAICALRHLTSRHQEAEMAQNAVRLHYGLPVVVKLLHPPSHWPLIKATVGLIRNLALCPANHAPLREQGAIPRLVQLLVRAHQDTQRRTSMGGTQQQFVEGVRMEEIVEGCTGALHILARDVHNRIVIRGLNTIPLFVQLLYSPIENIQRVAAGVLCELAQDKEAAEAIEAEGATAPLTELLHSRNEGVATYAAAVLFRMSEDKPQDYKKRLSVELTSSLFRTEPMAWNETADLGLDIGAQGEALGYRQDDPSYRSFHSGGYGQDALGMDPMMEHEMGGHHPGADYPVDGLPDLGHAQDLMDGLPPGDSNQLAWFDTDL
Substance,percent reduction of VEC/Ezh2 association [1],percent reduction of VEC/Ezh2 association [2]
TAT-P30 (Ezh2 peptide P30 synthesized in tandem with TAT of human immunodeficiency virus) (from UniProt Q61188 585-604),28%,–
TAT-M10 (Ezh2 peptide M10 synthesized in tandem with TAT of human immunodeficiency virus) (from UniProt Q61188 454-473),–,45.3%
